Measured values: patent US20240360474 (Scribe Therapeutics Inc., published 2024)
Changes are numbered by the printed parent chain.

Columns and labels:
CasX variant 438 = target: T1, CasX variant 438 (synthetic construct); test: cleavage_in_vitro
T1 chain: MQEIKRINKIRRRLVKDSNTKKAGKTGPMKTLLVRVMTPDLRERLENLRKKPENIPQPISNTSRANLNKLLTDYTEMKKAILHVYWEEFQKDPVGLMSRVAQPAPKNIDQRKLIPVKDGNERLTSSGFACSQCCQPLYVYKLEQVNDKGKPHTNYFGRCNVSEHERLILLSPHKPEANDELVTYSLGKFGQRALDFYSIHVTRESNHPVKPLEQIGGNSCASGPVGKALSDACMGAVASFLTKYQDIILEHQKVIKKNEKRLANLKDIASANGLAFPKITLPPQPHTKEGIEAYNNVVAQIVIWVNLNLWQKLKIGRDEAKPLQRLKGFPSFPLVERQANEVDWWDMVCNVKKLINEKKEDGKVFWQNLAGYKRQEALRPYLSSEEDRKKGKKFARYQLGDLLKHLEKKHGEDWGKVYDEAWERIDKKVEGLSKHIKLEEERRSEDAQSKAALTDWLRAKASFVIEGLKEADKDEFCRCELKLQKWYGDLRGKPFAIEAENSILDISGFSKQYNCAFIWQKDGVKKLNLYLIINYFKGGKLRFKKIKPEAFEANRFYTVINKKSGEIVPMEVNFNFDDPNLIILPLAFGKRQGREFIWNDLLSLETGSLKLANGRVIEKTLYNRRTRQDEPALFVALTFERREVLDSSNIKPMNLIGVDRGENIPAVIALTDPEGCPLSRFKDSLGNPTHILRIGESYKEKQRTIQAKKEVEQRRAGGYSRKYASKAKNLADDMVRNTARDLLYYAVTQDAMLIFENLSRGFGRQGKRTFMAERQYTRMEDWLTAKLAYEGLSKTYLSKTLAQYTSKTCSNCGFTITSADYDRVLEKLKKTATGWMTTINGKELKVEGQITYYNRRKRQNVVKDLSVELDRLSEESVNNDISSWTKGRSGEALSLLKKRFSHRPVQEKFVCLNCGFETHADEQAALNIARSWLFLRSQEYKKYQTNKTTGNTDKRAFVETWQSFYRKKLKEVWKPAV

CasX variant 119 = target: T2, CasX variant 119 (synthetic construct); test: cleavage_in_vitro
T2 chain: T1 chain with L399F, K404L, V658I, R856Y

B1: gRNA scaffold 174 + spacer 7.37 ; 7.37 TTC PAM target (ssRNA ; dsDNA)
RNA: ACUGGCGCUUUUAUCUGAUUACUUUGAGAGCCAUCACCAGCGACUAUGUCGUAGUGGGUAAAGCUCCCUCUUCGGAGGGAGCAUCAAAGGGGCCGAGAUGUCUCGCUCC
DNA 1: TGAAGCTGACAGCATTCGGGCCGAGATGTCTCGCTCCGTGGCCTTAGCTGTGCTCGCGCT
DNA 2: AGCGCGAGCACAGCTAAGGCCACGGAGCGAGACATCTCGGCCCGAATGCTGTCAGCTTCA
activity (CasX variant 438): 4.94 min⁻¹ | activity (CasX variant 119): 8.33 min⁻¹
